Measurements reported in patent publication US12551525B2, “Collagen peptide-based medicament compositions and devices and methods of production and use thereof” (SUSTAIN HOLDINGS, LLC, priority 2017, dated 2026).

Tested on: corneal epithelium in wounded mouse eyes
Assay: In vivo healing of mouse corneal epithelium (corneal wound model, fluorescein staining)
Set-up: species or system mouse (C57BL/6)
Settings: positive control, 100 ng/ml; 16 hours post-wounding; compared to Cmpd 3 and Cmpd 10
Method: The FIG. 1s a series of photomicrographs depicting the healing of a wound in the cornea of mouse eye, at time 0 and 16 hours post-wounding, upon treatment with certain compositions of the present invention. Wounds were introduced into the corneas of mice, and the mice treated immediately after wounding with vehicle (PBS), with 100 ng/ml of epidermal growth factor (EGF), or with 25 nM (about 3 mg/kg) of a (Pro-Pro-Gly)7 CMP of the invention (SEQ ID NO:1) (“Cmpd 3”), or of a (Hyp-Pro-Gly)7-SubP CMP-TC of the invention (SEQ ID NO:390) (“Cmpd 10”).
To examine the possible therapeutic effects of CMPs and CMP-TC conjugates of the invention, studies were designed to test certain CMPs and CMP-TC conjugates in an in vivo setting—the healing of the corneal epithelium in wounded mouse eyes. […] Wound size at various time points over 48 hours was examined by fluorescein staining (see Carlson et al., id.), and documented via fluorescent photomicrography, and quantified using Image J software (see Rush, J. S. et al., Investig. Ophthalmol. Visual Sci. 57 (14): 5864-5871 (2016); Rush, J. S. et al., Investig. Ophthalmol. Visual Sci. 55 (8): 4691-4699 (2014)). […]

B1: epidermal growth factor (protein, UniProt P01133 23-1207, looked up)
Pro-epidermal growth factor: PQHWSCPEGTLAGNGNSTCVGPAPFLIFSHGNSIFRIDTEGTNYEQLVVDAGVSVIMDFHYNEKRIYWVDLERQLLQRVFLNGSRQERVCNIEKNVSGMAINWINEEVIWSNQQEGIITVTDMKGNNSHILLSALKYPANVAVDPVERFIFWSSEVAGSLYRADLDGVGVKALLETSEKITAVSLDVLDKRLFWIQYNREGSNSLICSCDYDGGSVHISKHPTQHNLFAMSLFGDRIFYSTWKMKTIWIANKHTGKDMVRINLHSSFVPLGELKVVHPLAQPKAEDDTWEPEQKLCKLRKGNCSSTVCGQDLQSHLCMCAEGYALSRDRKYCEDVNECAFWNHGCTLGCKNTPGSYYCTCPVGFVLLPDGKRCHQLVSCPRNVSECSHDCVLTSEGPLCFCPEGSVLERDGKTCSGCSSPDNGGCSQLCVPLSPVSWECDCFPGYDLQLDEKSCAASGPQPFLLFANSQDIRHMHFDGTDYGTLLSQQMGMVYALDHDPVENKIYFAHTALKWIERANMDGSQRERLIEEGVDVPEGLAVDWIGRRFYWTDRGKSLIGRSDLNGKRSKIITKENISQPRGIAVHPMAKRLFWTDTGINPRIESSSLQGLGRLVIASSDLIWPSGITIDFLTDKLYWCDAKQSVIEMANLDGSKRRRLTQNDVGHPFAVAVFEDYVWFSDWAMPSVMRVNKRTGKDRVRLQGSMLKPSSLVVVHPLAKPGADPCLYQNGGCEHICKKRLGTAWCSCREGFMKASDGKTCLALDGHQLLAGGEVDLKNQVTPLDILSKTRVSEDNITESQHMLVAEIMVSDQDDCAPVGCSMYARCISEGEDATCQCLKGFAGDGKLCSDIDECEMGVPVCPPASSKCINTEGGYVCRCSEGYQGDGIHCLDIDECQLGEHSCGENASCTNTEGGYTCMCAGRLSEPGLICPDSTPPPHLREDDHHYSVRNSDSECPLSHDGYCLHDGVCMYIEALDKYACNCVVGYIGERCQYRDLKWWELRHAGHGQQQKVIVVAVCVVVLVMLLLLSLWGAHYYRTQKLLSKNPKNPYEESSRDVRSRRPADTEDGMSSCPQPWFVVIKEHQDLKNGGQPVAGEDGQAADGSMQPTSWRQEPQLCGMGTEQGCWIPVSSDKGSCPQVMERSFHMPSYGTQTLEGGVEKPHSLLSANPLWQQRALDPPHQMELTQ
modifications: Pro-epidermal growth factor
notes: positive control growth factor
- wound healing in mouse cornea and corneal stroma (reduction in diameter and intensity of fluorescein fluorescence): a lower level of healing
